The record followed here is publication PMC10180240, “Semi-Rational Design of L-Isoleucine Dioxygenase Generated Its Activity for Aromatic Amino Acid Hydroxylation” (Molecules, 2023).

For data set [1], the system named is T1, N[C@@H](CCc1ccccc1)C(=O)O.
T1 construct: full-length ido (240 aa without tag) in pET-28a(+) NcoI/SalI, expressed in E. coli BL21(DE3), Ni column
Nature of the data set: succinate release, succinic acid assay kit; Michaelis-Menten fit. It counts as biochemical, Bacillus thuringiensis. The note with it: 10 mM alpha-KG, 0.5 mM FeSO4, 10 mM ascorbic acid, 50 mM Bis-Tris pH 6.0, 25 °C. From the text:
(§1) succinate release, succinic acid assay kit; Michaelis-Menten fit on L-isoleucine dioxygenase (IDO)

For another data set, the system named is T2, N[C@@H](Cc1ccccc1)C(=O)O.
T2 construct: full-length ido (240 aa without tag) in pET-28a(+) NcoI/SalI, expressed in E. coli BL21(DE3), Ni column
The data set is described as above. In kind it is biochemical, Bacillus thuringiensis. The following applies: 10 mM alpha-KG, 0.5 mM FeSO4, 10 mM ascorbic acid, 50 mM Bis-Tris pH 6.0, 25 °C.
From the text: as §1

For the substance “L-isoleucine dioxygenase (IDO) (Bacillus thuringiensis; S153A)”, in data set [1], the Km is 20 ± 0 µM, the Vmax worked out at 0.09 µmol/min/mg, the kcat is 0.05 s⁻¹ and the kcat/Km stood at 2500 ± 40 M⁻¹ s⁻¹. Also, in the data set on N[C@@H](Cc1ccccc1)C(=O)O, the Km is 20 ± 0 µM, the Vmax was determined as 0.05 µmol/min/mg, the kcat amounted to 0.03 s⁻¹ and the kcat/Km worked out at 1500 ± 50 M⁻¹ s⁻¹.

Regarding “L-isoleucine dioxygenase (IDO) (Bacillus thuringiensis; S153Q)”, in data set [1], the Km came out at 40 ± 10 µM, the Vmax was found to be 0.21 µmol/min/mg, the catalytic constant (kcat) was found to be 0.14 ± 0.01 s⁻¹ and the kcat/Km stood at 3500 ± 100 M⁻¹ s⁻¹.

With “L-isoleucine dioxygenase (IDO) (Bacillus thuringiensis; S153Y)”, in data set [1], the Km came out at 20 ± 0 µM, the Vmax was determined as 0.08 µmol/min/mg, the kcat is 0.03 s⁻¹ and the kcat/Km is 1500 ± 40 M⁻¹ s⁻¹.

Regarding “L-isoleucine dioxygenase (IDO) (Bacillus thuringiensis; Y143D)”, in the data set with N[C@@H](Cc1ccccc1)C(=O)O, the Km worked out at 40 ± 0 µM, the Vmax was determined as 0.15 µmol/min/mg, the kcat was 0.08 s⁻¹ and the kcat/Km came out at 2000 ± 10 M⁻¹ s⁻¹.

On to “L-isoleucine dioxygenase (IDO) (Bacillus thuringiensis; Y143I)”, for which, in data set [1], the Km came out at 20 ± 0 µM, the Vmax is 0.08 µmol/min/mg, the kcat came to 0.04 s⁻¹ and the kcat/Km was 2000 ± 80 M⁻¹ s⁻¹. Also, in the data set with N[C@@H](Cc1ccccc1)C(=O)O, the Km was found to be 30 ± 0 µM, the Vmax is 0.1 µmol/min/mg, the kcat came out at 0.04 s⁻¹ and the kcat/Km is 1330 ± 40 M⁻¹ s⁻¹.
